# The Immune Epitope Database (IEDB)
# Columns and labels:
# [1] = molecular target: HLA-B*39:01; assay: IEDB peptide-MHC binding, purified MHC/competitive/fluorescence; filed as Kd, often an IC50 or EC50 that approximates it; ≥ and ≤ were set here for values at or beyond the usual limits of such assays; conditions: source organism: Orthohantavirus andesense
# [2] = molecular target: HLA-B*18:01; assay: as above; conditions: source organism: Orthohantavirus andesense
# [3] = molecular target: HLA-A*69:01; assay: as above; conditions: source organism: Orthohantavirus andesense
# [4] = molecular target: HLA-A*02:01; assay: as above; conditions: source organism: Orthohantavirus andesense
# [5] = molecular target: HLA-B*51:01; assay: as above; conditions: source organism: Orthohantavirus andesense
# [6] = molecular target: HLA-B*58:01; assay: as above; conditions: source organism: Orthohantavirus andesense
# [7] = molecular target: HLA-B*15:01; assay: as above; conditions: source organism: Orthohantavirus andesense
# [8] = molecular target: HLA-B*27:03; assay: as above; conditions: source organism: Orthohantavirus andesense
# [9] = molecular target: HLA-A*26:01; assay: as above; conditions: source organism: Orthohantavirus andesense
# [10] = molecular target: HLA-B*46:01; assay: as above; conditions: source organism: Orthohantavirus andesense
# [11] = molecular target: HLA-A*02:19; assay: IEDB peptide-MHC binding, purified MHC/direct/fluorescence; filed as Kd, often an IC50 or EC50 that approximates it; ≥ and ≤ were set here for values at or beyond the usual limits of such assays
# [12] = molecular target: HLA-A*02:11; assay: as above
# [13] = molecular target: HLA-A*02:16; assay: as above
# [14] = molecular target: HLA-A*02:12; assay: as above
# [15] = molecular target: HLA-A*02:03; assay: as above
# [16] = molecular target: HLA-A*68:02; assay: as above
# [17] = molecular target: HLA-A*03:01; assay: as above
# [18] = molecular target: HLA-B*58:01; assay: IEDB peptide-MHC binding, purified MHC/competitive/fluorescence; ≥ and ≤ were set here for values at or beyond the usual limits of such assays; conditions: source organism: Homo sapiens
# [19] = molecular target: HLA-B*39:01; assay: IEDB peptide-MHC binding, purified MHC/direct/fluorescence; filed as Kd, often an IC50 or EC50 that approximates it; ≥ and ≤ were set here for values at or beyond the usual limits of such assays; conditions: source organism: Encephalitozoon cuniculi GB-M1
# [20] = molecular target: HLA-B*18:01; assay: as above; conditions: source organism: Encephalitozoon cuniculi GB-M1
# [21] = molecular target: HLA-B*35:01; assay: as above; conditions: source organism: Encephalitozoon cuniculi GB-M1
# [22] = molecular target: HLA-A*02:01; assay: as above; conditions: source organism: Encephalitozoon cuniculi GB-M1
# [23] = molecular target: HLA-B*51:01; assay: as above; conditions: source organism: Encephalitozoon cuniculi GB-M1
# [24] = molecular target: HLA-B*15:01; assay: as above; conditions: source organism: Encephalitozoon cuniculi GB-M1
# [25] = molecular target: HLA-B*57:01; assay: as above; conditions: source organism: Encephalitozoon cuniculi GB-M1
# [26] = molecular target: HLA-B*27:03; assay: as above; conditions: source organism: Encephalitozoon cuniculi GB-M1
# [27] = molecular target: HLA-A*26:01; assay: as above; conditions: source organism: Encephalitozoon cuniculi GB-M1
# [28] = molecular target: HLA-B*46:01; assay: as above; conditions: source organism: Encephalitozoon cuniculi GB-M1
# [29] = molecular target: HLA-B*07:02; assay: as above; conditions: source organism: Encephalitozoon cuniculi GB-M1
# [30] = molecular target: HLA-B*51:01; assay: IEDB peptide-MHC binding, purified MHC/competitive/fluorescence; ≥ and ≤ were set here for values at or beyond the usual limits of such assays; conditions: source organism: Mus musculus
# [31] = molecular target: HLA-C*03:03; assay: IEDB peptide-MHC binding, purified MHC/direct/fluorescence; filed as Kd, often an IC50 or EC50 that approximates it; ≥ and ≤ were set here for values at or beyond the usual limits of such assays; conditions: source organism: Mus musculus
# [32] = source organism: Orthohantavirus puumalaense
# [33] = source organism: Encephalitozoon cuniculi GB-M1
sequence,measurement,setting,value
QIQAGNFHW,Kd,[1],≥ 20 µM
same,Kd,[2],≥ 20 µM
same,Kd,[3],≥ 20 µM
same,Kd,[4],≥ 20 µM
same,Kd,[5],≥ 20 µM
same,Kd,[6],0.0022 µM
same,Kd,[7],≥ 20 µM
same,Kd,[8],≥ 20 µM
same,Kd,[9],≥ 20 µM
same,Kd,[10],≥ 20 µM
same,Kd,[11]; [32],≥ 20 µM
same,Kd,[12]; [32],≥ 20 µM
same,Kd,[13]; [32],≥ 20 µM
same,Kd,[14]; [32],≥ 20 µM
same,Kd,[15]; [32],≥ 20 µM
same,Kd,[16]; [32],≥ 20 µM
same,Kd,[17]; [32],≥ 20 µM
QSSGSSSSGF,IC50,[18],≥ 20 µM
SPLPITLKY,Kd,[19],≥ 20 µM
same,Kd,[20],≥ 20 µM
same,Kd,[21],0.002 µM
same,Kd,[22],≥ 20 µM
same,Kd,[11]; [33],≥ 20 µM
same,Kd,[23],≥ 20 µM
same,Kd,[12]; [33],≥ 20 µM
same,Kd,[24],≥ 20 µM
same,Kd,[13]; [33],≥ 20 µM
same,Kd,[14]; [33],≥ 20 µM
same,Kd,[25],≥ 20 µM
same,Kd,[15]; [33],≥ 20 µM
same,Kd,[16]; [33],≥ 20 µM
same,Kd,[26],≥ 20 µM
same,Kd,[27],≥ 20 µM
same,Kd,[28],≥ 20 µM
same,Kd,[29],4.5 µM
same,Kd,[17]; [33],≥ 20 µM
VALFSSCPV,IC50,[30],1.85 µM
same,Kd,[31],0.002 µM
